# Test: protease stability score; higher = more stable; yeast display proteolysis, trypsin and chymotrypsin;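 further: relative to predicted unfolded state with 0 unfolded-like and 1 meaning tenfold more protease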
row,Sequence,protease stability score
1,TEDQEQAEEHFREEIHHWRTGDEDQLRRLMDPNTRIEIGDKVLHGREHAELFLRRYKGLKIDRFEIRHRDHQGDYVILHTHFRGEVNGRDFENTVQLVVLKVDGRWFLKYIRVE,1.64
2,SEDEKFLQIALHLMMHWINTGDEDFLREMADPHVRLHDGDKEHHGWKVIEHLFHYYGVDHITVKRYTIIGDKVKTDGELRVGDKRFRILYETVKIDGRWHVHKIEIR,1.43
3,SQEERELHRALKELFDRFITGDWDKLQKLLDPEVRLNINGQEIHGREEVWKRKIEEFEKFGIDHIKFHLEHERRQGDKIELDGRLEIRVGDKRLEHEVRIVFLKIDGKWILRSEEIN,1.47
4,TEDKEIAIRVTEHFIEAIYTGDEDRVRDLLDPEARLDVNGVELHGMRWFTFWLRQIRIHNMYIRHTEVQGDKVHVDMEQDVEFNGKRHELKSHFVLLKVNGRWTVKHYNVR,2.28
5,SEIHDLITTMSRLFWDVIRTGDFEALEKLLDPHTRFEFLIGDKTEEYVGRHNVVRAIMDIWERLGIDHMHLKNVRYQGEKSDIDTEMHFDGRTFDTKIIIVVIDGKLHNVSIEFR,1.39
6,SEEEELLEHAYRHLIHTILTGDERLIEEMLDPNVRISIGEYHSHGREEAIRDVHELGIKHSERLHLTHVDSQGNKVRLHVEFVTNVNGVRRHVTVTWHIIKVNGKWYIESWDHQ,1.83
7,DEETNLSKLVMEISLELLETGDEEHIHRFVDPHARTILFIDGREEQVHGREQASKWIMWTVKFLGVDHIEVEDTKIVNGVAHLNIRMEVGDKRLTSHFTSEKVNGKWLIKDIRIRID,1.94
8,DHREHRSHRIAEWILRNLVTGNEDEISKLLDPDARVIINGQEVIGREEINRMLRHVFNEIRIHDIEIRDLEIQGEFAFVDTRLDGEFDGRRIKQKSELRIVVINGRVRELEIRIH,1.52
9,SEDHEIARLAVEIETHSQLTGDEESMNHLLDPTTRININGRELHGREEAIEWMKRFMEQFDHVKVEVEDISIQGEKLIIRGRFSVIYDGRKVQDHTEVIIVKFNGRWHVKSVHIR,2.58
10,SELEHEMVEFFRLLVHAWRTGNEELAHRLIDPNVRLDVNGRHFHGWEEFFRFYKEIRLKDADLDSFRIIDGRVELDGTMHMEQGDKSRSVESHVLLEKIDGRWIVRSVRFH,1.44
11,SDEEERIRRVAEHILHLILTGDEDRWEDMMDPNVRVHIDWNGVKIHLHGREKAAEFFKRFKNIRIEIHSVRIIGEKNDSDERLHVNGQTRDLHNHIIVVNGRIEHMEIRVR,2.66
12,DEDAHLIEHLVHLMLHATNTGDEDILKDLMDPNMKIQIGDKEFHGREEFEEMHRRADHLETTDWKLHSVDIQGDKIHLDTRVDRVIIINGKITREDTRTELDVRKIDGRWVVTRISVE,1.27
13,DEEHRLSHEIEKHLEDDLRTGDFHHFIKQVDPNTRVRYGDKRLHGMHAVIWTLEHLGIDVFHLTDSHTFENRVVVHVRLEQGDFTMSVEVHATKVNGRWIVTKINFHHS,0.023
14,DKEDREAHFLARLFLKIEETGDEETMHKYFDPHVRWIQGDWHMHGREDIIEFVRHMGVTIQMHDHEDIKVFDGRVQIKGHKRVNINGKQFEISVRIDINVINGRIRKVQIDEK,1.32
15,SEVEESIEHAREIVTEVIKTGDEHHLNRLADPNTRVVFDGKDLHGRERLEEVLREMGVNHIEIKDMKYDSQGNKVHIDIDGRVNVGEKSHNTHLHWIVEKVNGRWLLSSIIIIIR,0.886
16,DEEHKELRRAWEQLIHDIKTGDEESFKRLADPDVQVRVGDKVEHGREATERWLRQVDHIKHFEEKRIHIYDGRVELKGRVTGVINGRELNTEIDFEIVYIDGKLHRIRIHFR,1.09
17,DEEDKLSKEFSRTWEEIWRTGDEQEIKHLADPDTRDLVYIDGVNIDNHGREEMSRSMREWRDKFKNAREHVTHSRAQGDKVEMRIRIDFNGREIDMIVKIIVVDGRLKEFEIEIR,1.56
18,SEENEAAKLVIEKLNHSWKTGDWRLSEKLMDPDVRVHINGQDLHGREQARKFLEEIRLHMRDVKVKEIRIVDGRLETHGHVHIELIFDGRVFRIERDVESVVLKFNGKWTLESLEVI,1.21

row,Sequence,protease stability score
1,DEHEEDARRDLEKLARSLKTGDEDSLRTLFDPNTRNDVNGKDFIGWEELLRILREWRFHDMKVEDLEVQGNKVISHVRLDGTFDGRRDEMHVEIRAEKVNGRWRIRSYIVR,1.77
2,DEATKDAERIIEMFIRAIETGDEKVFKRLLDPNVRLVVDGKEFHGREKFIEWLRRIDVTHQVHFRLHDSDMQGDKLHLDSSEIHDVKYNGVRFVDHYRVHLQIHKFDGRWHLENIIIR,1.51
3,DEKTEKEQRWFEEILHAILTGDEEFLLRNADPNTRSHFNGRDVHGMELLSEIWTKHVEDLGFDHAHIRSVKVFDGRFILNMQIHVNGVELDVHLIYDVVDGVVKRVIVETHKH,0.442
4,DETEELFEEIVKIFIEAMETGDWRLLKRMVDPHVRSIQGDFHLHGRESMLELWLHIRIDRITLTDARVRIQGEKVHVDLRVKTNGIINGRRKDTQTHVHLHLDKVNGVWSITITNIIFE,0.553
5,STLEEHVFRMAYEIITDLETGDEEYYKKRADPDMYVHIRIGDKEVEIHGREHFIQWVKRLFEEIRIHWRIRDMHIVDGVYRFHTELEIRIGDKEHRIKSEVKVVVVNGKIKQLEIRIK,2
6,SEEDKELEEFFRMYIHAARTGDWHTLTRLLDPNVLLMVNGRETHGMDKVKELLKRLGVDYINIEHVEVHRMDFQGDKLRMDTTEDGFVNGVRTHRSVHHILVKVDGRWYIESVHIK,2.02
7,DEMDEVMERWAREYISWEKTGDEEKAKKYVDPNVKTHIDFNGRHVENIGMESEFNFFRELGITIHDIKIREIELQGDKVRIKGRIVFQIGDFEIIIERTVHIVVINGQDRHSEFRFE,0.194
8,SEEEEIARKIADIFFKVMQTGDEDHWLELFDPHTRFESDFNGRTVEIHGRERVREWKRKLEEDLGLTRFEIILRDSHVVNGVIHMDIEVRINGKTRRWIIDLIVINGRVKSLRVEIR,1.15
9,SEEEKLSRELVNEFLRLWKTGDWRRFHELADPDAKQQYNVNGQNFDYHGRDEVTDAVREFLNRLGVDHFHVHDSRIIGEKKEIDGHLNFNGRTHHIEMVVVVINGRVHKIEFHVR,0.28
10,DEKQVLELIRDVMKHVQNGNQEEVKKHGKPSVEVILFNERYTGPEALVRLAEFAQKLGAQFEYKETRHEGNKVKTKVEVTFGGTTVRYEVEVEAEGGKVVKWEVRASDEFDERVKKS,1.29
11,DEDEEESRRFTEILLHKFWTGDEDWYRKMADPNDKSVVGDKLFHGRDEVDRAIHEFLRHLGVDHFELHRLEVDHYNGKAEVRSDMILRVNGQERRMILKVHNTKFNGRWTLESVRIESR,0.715
12,DTDTHTVKEFIRALVESSRTGDEDLLRDFADPRMRIDIDGRIFHGRENALRWLSELRIEEVRIDHVTIVDGRLHVDVTYRGDINGQHTETRVILIILKVNGRWRMHYIEVR,1.55
13,HEEQKAIEEWAKRLWDVLLTGDEDELHELLDPHVKLEVHVDGKTIHRHGREEVIRFMVEMRIRDFKIEHVQMYGDKLHMNTRSRGIYNGKHRETEVSIIVTVVNGRLKMIIIEIR,2.06
14,SEEHELAESMAEEVLRSFLTGDEDTLHELFDPHVRVNYNGKVFHGREKLIKILNELRWDHTTVKRIEIRYYGDKVEVVLHVEIHFEINGQRISHRVDIIIIAEKVNGRWRVRDFIYIEK,1.35
15,SEEEERMETLTRLLDHAWHTGDFDFLSKLLDPNTRVVQGEFHHHGRHALRKILHDLNRIMGVDHSDIEDREIQGDKIHIHVRIEVNGRVVDSHINIIVVDGRIKTVEMTIR,-0.216
16,DEDTQTLEKIWRDFVRALRTGDEDHLSRLLDPNTRIDINGKESHGRERAEEVLREMFERIDHFHRVEIHDRREVNGRVNLDTRRDVEVNGVRDMYTTHLIILKVDGKWSMKTIELK,1.33
17,DEHKEEFREWVERLEHVLKTGNEDELHELADPDVKVRIGDKEIHGMHEVLRFILEFYKKLGIDHRHLRIDDYRVQGDFLHIDGHLELTFNGRKHTHQLHIVVLKVNGRWILKEIRVS,2.25
18,DHMDEELKEFLRHFLEYFRTGDFDSLYKLIDPHVKSDINGQEIHGMDLQSFWHRHIRERLGVNHMHIEITEIRYINGRAEVYGKLEVNVNGKRFEHDVHMFNLKVDGKWILESLEIR,2.28
